Measurements: IntAct's records for PubMed 35512704

B1: Mothers against decapentaplegic homolog 4 (Homo sapiens), Q13485 (parent)
chain: MDNMSITNTPTSNDACLSIVHSLMCHRQGGESETFAKRAIESLVKKLKEKKDELDSLITAITTNGAHPSKCVTIQRTLDGRLQVAGRKGFPHVIYARLWRWPDLHKNELKHVKYCQYAFDLKCDSVCVNPYHYERVVSPGIDLSGLTLQSNAPSSMMVKDEYVHDFEGQPSLSTEGHSIQTIQHPPSNRASTETYSTPALLAPSESNATSTANFPNIPVASTSQPASILGGSHSEGLLQIASGPQPGQQQNGFTGQPATYHHNSTTTWTGSRTAPYTPNLPHHQNGHLQHHPPMPPHPGHYWPVHNELAFQPPISNHPAPEYWCSIAYFEMDVQVGETFKVPSSCPIVTVDGYVDPSGGDRFCLGQLSNVHRTEAIERARLHIGKGVQLECKGEGDVWVRCLSDHAVFVQSYYLDREAGRAPGDAVHKIYPSAYIKVFDLRQCHRQMQQQAATAQAAAAAQAAAVAGNIPGPGSVGGIAPAISLSAAAGIGVDDLRRLCILRMSFVKGWGPDYPRQSIKETPCWIEIHLHRALQLLDEVLHTMPIADPQPLD
partner: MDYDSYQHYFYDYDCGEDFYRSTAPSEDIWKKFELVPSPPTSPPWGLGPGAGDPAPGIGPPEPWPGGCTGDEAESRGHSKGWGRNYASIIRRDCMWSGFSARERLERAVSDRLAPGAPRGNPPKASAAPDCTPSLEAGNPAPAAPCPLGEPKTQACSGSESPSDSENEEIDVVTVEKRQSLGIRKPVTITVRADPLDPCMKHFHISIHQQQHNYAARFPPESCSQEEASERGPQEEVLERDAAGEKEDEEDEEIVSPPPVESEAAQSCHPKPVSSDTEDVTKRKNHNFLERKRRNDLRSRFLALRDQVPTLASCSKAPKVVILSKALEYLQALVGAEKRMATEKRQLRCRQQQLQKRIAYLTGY
B2: Mothers against decapentaplegic homolog 4 (Homo sapiens), Q13485 (parent)
chain: B1 chain
partner: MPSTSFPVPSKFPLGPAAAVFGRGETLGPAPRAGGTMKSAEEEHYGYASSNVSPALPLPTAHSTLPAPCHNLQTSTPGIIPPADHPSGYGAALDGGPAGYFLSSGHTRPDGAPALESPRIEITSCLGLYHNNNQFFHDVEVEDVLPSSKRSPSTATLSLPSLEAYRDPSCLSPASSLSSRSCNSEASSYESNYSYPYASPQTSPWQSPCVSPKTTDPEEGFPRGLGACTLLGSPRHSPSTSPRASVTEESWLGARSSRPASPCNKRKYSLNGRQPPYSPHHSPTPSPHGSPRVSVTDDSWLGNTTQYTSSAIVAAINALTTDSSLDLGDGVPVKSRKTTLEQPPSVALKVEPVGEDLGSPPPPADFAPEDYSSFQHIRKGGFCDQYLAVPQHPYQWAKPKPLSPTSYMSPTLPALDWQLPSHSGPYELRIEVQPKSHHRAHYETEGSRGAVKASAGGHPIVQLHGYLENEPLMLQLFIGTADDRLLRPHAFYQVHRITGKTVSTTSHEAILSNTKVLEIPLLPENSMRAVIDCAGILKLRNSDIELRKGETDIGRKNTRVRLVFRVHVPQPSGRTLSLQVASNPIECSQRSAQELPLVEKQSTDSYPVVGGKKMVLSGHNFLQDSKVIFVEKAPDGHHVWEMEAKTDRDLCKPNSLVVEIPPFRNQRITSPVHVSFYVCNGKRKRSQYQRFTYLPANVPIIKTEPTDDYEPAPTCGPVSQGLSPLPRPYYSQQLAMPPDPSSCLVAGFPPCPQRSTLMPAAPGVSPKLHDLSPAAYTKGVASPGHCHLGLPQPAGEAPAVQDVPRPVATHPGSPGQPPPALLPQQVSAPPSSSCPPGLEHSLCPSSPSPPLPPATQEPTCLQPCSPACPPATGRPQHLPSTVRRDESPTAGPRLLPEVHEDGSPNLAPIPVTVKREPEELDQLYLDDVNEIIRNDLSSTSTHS
B3: Mothers against decapentaplegic homolog 4 (Homo sapiens), Q13485 (parent)
chain: B1 chain
partner: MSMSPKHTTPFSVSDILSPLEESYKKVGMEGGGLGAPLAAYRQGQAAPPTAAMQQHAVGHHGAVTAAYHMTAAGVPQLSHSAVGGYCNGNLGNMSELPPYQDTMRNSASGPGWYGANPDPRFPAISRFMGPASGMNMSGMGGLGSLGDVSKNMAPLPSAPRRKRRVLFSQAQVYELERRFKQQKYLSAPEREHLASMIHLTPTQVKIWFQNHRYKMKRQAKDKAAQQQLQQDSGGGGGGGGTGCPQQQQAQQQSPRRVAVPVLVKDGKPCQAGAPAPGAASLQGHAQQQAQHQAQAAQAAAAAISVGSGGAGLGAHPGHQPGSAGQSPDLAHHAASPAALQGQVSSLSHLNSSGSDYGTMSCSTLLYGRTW
B4: Mothers against decapentaplegic homolog 4 (Homo sapiens), Q13485 (parent)
chain: B1 chain
partner: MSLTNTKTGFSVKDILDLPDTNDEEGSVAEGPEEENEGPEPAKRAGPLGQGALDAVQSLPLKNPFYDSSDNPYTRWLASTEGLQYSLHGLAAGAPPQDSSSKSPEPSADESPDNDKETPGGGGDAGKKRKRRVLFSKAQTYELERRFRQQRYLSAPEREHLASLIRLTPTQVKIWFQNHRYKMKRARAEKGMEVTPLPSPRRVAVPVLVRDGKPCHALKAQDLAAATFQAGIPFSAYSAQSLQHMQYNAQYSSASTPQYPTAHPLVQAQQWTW
B5: Mothers against decapentaplegic homolog 4 (Homo sapiens), Q13485 (parent)
chain: B1 chain
partner: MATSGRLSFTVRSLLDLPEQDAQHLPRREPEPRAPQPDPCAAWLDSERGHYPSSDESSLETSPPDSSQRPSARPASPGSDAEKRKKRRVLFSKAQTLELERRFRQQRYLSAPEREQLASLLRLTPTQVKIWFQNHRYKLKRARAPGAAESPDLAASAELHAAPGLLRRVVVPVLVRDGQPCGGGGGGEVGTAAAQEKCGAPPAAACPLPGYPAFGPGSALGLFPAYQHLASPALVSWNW
B6: Mothers against decapentaplegic homolog 4 (Homo sapiens), Q13485 (parent)
chain: B1 chain
partner: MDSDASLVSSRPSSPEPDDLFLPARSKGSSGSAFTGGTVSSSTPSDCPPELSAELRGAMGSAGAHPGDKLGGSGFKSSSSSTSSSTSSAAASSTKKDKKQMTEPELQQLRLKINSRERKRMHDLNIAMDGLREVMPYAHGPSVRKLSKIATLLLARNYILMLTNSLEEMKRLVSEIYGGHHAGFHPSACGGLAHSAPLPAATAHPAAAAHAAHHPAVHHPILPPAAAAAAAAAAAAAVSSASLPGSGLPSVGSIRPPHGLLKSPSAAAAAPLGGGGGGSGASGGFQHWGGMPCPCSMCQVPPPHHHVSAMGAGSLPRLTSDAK

Variants of: B1
Settings: with mycl_human MYCL
For D351H, the “effect of a mutation on the interaction” value was “with no effect”.

Variants of: B1
Settings: with mycl_human MYCL
Remark: another data set of the same source
In the case of G386D, the “effect of a mutation on the interaction” value is reported as “with no effect”.

Variants of: B1
Settings: with mycl_human MYCL
Remark: another data set of the same source
For R361C, the “effect of a mutation on the interaction” value was “with no effect”.

Variants of: B1
Settings: with mycl_human MYCL
Remark: another data set of the same source
With R361H the “effect of a mutation on the interaction” value was “with no effect”.

Variants of: B2
Settings: with nfac1_human NFATC1, O95644
With D351H the “effect of a mutation on the interaction” value was “with no effect”.

Variants of: B2
Settings: with nfac1_human NFATC1, O95644
Remark: another data set of the same source
With G386D the “effect of a mutation on the interaction” value was “with no effect”.

Variants of: B2
Settings: with nfac1_human NFATC1, O95644
Remark: another data set of the same source
R361C was tested, and the “effect of a mutation on the interaction” value was “with no effect”.

Variants of: B2
Settings: with nfac1_human NFATC1, O95644
Remark: another data set of the same source
In the case of R361H, the “effect of a mutation on the interaction” value is reported as “with no effect”.

Variants of: B3
Settings: with nkx21_human NKX2-1, P43699
For D351H, the “effect of a mutation on the interaction” value was “with no effect”.

Variants of: B3
Settings: with nkx21_human NKX2-1, P43699
Remark: another data set of the same source
For G386D, the “effect of a mutation on the interaction” value was “with no effect”.

Variants of: B3
Settings: with nkx21_human NKX2-1, P43699
Remark: another data set of the same source
In the case of R361C, the “effect of a mutation on the interaction” value is reported as “with no effect”.

Variants of: B3
Settings: with nkx21_human NKX2-1, P43699
Remark: another data set of the same source
R361H was tested, and the “effect of a mutation on the interaction” value was “with no effect”.

Variants of: B4
Settings: with nkx22_human NKX2-2, O95096
D351H was tested, and the “effect of a mutation on the interaction” value was “with no effect”.

Variants of: B4
Settings: with nkx22_human NKX2-2, O95096
Remark: another data set of the same source
In the case of R361C, the “effect of a mutation on the interaction” value is reported as “with no effect”.

Variants of: B4
Settings: with nkx22_human NKX2-2, O95096
Remark: another data set of the same source
For R361H, the “effect of a mutation on the interaction” value was “with no effect”.

Variants of: B5
Settings: with nkx28_human NKX2-8, O15522
D351H was tested, and the “effect of a mutation on the interaction” value was “with no effect”.

Variants of: B5
Settings: with nkx28_human NKX2-8, O15522
Remark: another data set of the same source
G386D was tested, and the “effect of a mutation on the interaction” value was “with no effect”.

Variants of: B5
Settings: with nkx28_human NKX2-8, O15522
Remark: another data set of the same source
With R361C the “effect of a mutation on the interaction” value was “with no effect”.

Variants of: B5
Settings: with nkx28_human NKX2-8, O15522
Remark: another data set of the same source
R361H was tested, and the “effect of a mutation on the interaction” value was “with no effect”.

Variants of: B6
Settings: with olig2_human OLIG2, Q13516
With D351H the “effect of a mutation on the interaction” value was “with no effect”.

Variants of: B6
Settings: with olig2_human OLIG2, Q13516
Remark: another data set of the same source
For G386D, the “effect of a mutation on the interaction” value was “with no effect”.

Variants of: B6
Settings: with olig2_human OLIG2, Q13516
Remark: another data set of the same source
With R361C the “effect of a mutation on the interaction” value was “with no effect”.

Variants of: B6
Settings: with olig2_human OLIG2, Q13516
Remark: another data set of the same source
In the case of R361H, the “effect of a mutation on the interaction” value is reported as “with no effect”.
